# Measurements published in the DeepSol protein solubility set.
# Assay: soluble on expression in E. coli; label from the status in PepcDB or PDB records
row,Sequence,soluble on expression in E. coli
1,MAHHHHHHMSAKLTVAVPRLASTVLLLARNPKHAISEQRPATGDNAARENDIHVLIMKRHGKARFMPGVYVFPGGGIEGSDYAAATHYLAEHYNLHLQDAADKKVTTQDFIESCGQPSAEEAELEAWACRVGALRELAEEAACVLRRDGCIFSEAEWIKWQKSRSDAGATGGASTDPVSSRPATLLPIYDLPAVSSLRPVARWVSPRQSRYRYDTYFYAALVNSALVSAEAHKAAHAPCSTQASSCDEANAGMGVRCIPPQELPLLEQASEVSELLWISPLEALRRHEDPSDVFSLAPPTYLLLHALSLQPSFASLAAAWAAAPASPEDPAAKPLGDLPHSSVLPCVEPLSTMTEDGRRIMKFVLPARYFHETGWSVAEGEYLFPGECCAGHRHFIHVFVGRAGATTGDGATADKPCTILH,not soluble
2,MNLASQISQAKTGNATMEWAKNYVSKLNDGQLALLQKMYADHQAKLKASEDEKKKKEMEELKMKAQQQAILDSLTQQIPIMVDVLRSSTSPDSQPSSSSSVMSSTDEDQITVKDVLIGKINKAQRQSSPNSSKPYTPRGIRERVLFDEHLYVFDKCSYDSKKRFFRCERKNTCPARIHTPFDAERVIHKVQVHNHPPPTTFDLAHYNIDYGKVKSGHILSLNGPQQTKNLLPPSLLTPKSDLEDETLSTKTEQKNASTMNILLSMTNNCDGRKPITLRLPDLFNKISEMEIHDMEMTLTKFLLENRELRTDLISRNGDLPVFFPNAHNDELVLFVADQHENDSVFQMIRVSERNEKSIRQAIQEHLQKVSNRSLMMNISSKINVPLSQQMIDQWRTEEFIRLDSSKPNFWKIHHVSKLQD,not soluble
3,KEKFNYYIGANIAADKNEVTKITLGGQNLMISGYSAHGAGGRGINMFAEGHPMSYFNLIETDGLFRSAEEIANYKNKDGELIQPAAQVGDVRYKDWNGDGKINTDDQHDVGSPFPDFTFGIRLGGEWNNFDFNLFFDGMVGNKIYNYPRYRLESGNFNGNMSTVLANSWRPDNQNTDIPRFSKTDGADNKWAYTDRWLEDGSYIRLKTLDIGYTLPKVLTKKIKLENVRIYTSMENLFTLTKYSGYTPDLGESSVAGVAYNVFSRGIDQGRYPLPRTISFGIQVNL,not soluble
4,MLKNEETEKKLNLNQQRLGTVVAVLKSVNAKKVIDLGCGEGNLLSLLLKDKSFEQITGVDVSYSVLERAKDRLKIDRLPEMQRKRISLFQSSLVYRDKRFSGYDAATVIEVIEHLDENRLQAFEKVLFEFTRPQTVIVSTPNKEYNFHYGNLFEGNLRHRDHRFEWTRKEFQTWAVKVAEKYGYSVRFLQIGEIDDEFGSPTQMGVFTLGAGGHHHHHH,soluble
5,MSLNKVSLAQIAKAAGVSKMTASRVLRDEGGFSESTRARVMAEIDRLGYVPNRLATVFAGDQRSTFVGVSIPELGNEIFAQVLEGIDRKLGAFGHQTVLGMTEHALEQEEKWLETVLSWQPAGLIVTGRSHTPKSIQLLSGAGIPLVEIWDFNSSPLDMSVGLNHFDSGYSMGRYLTGLGYRQFGYVGTSHDTANAASARLAGYAKVIGDSGGSLKKQLLLKDAPGFYTGYYGTEQLLAANSDVEVIYYQNDNMAVGGLNYCQKRGLSIPGDIGIAGWGDLPIASILPYRLTSTAVPHLRIGMIAAEMVLSQINGEARRRSQDVGFTLIPGSTVRSQLEEGHHHHHH,soluble
6,MITQSSLLTYPLAGCLNRLANKSSQVKQRLQTHANETVCFRIDSLASLSVTITQDGHFTTAAKDTQAAVILDIAAELIPRIASGEMAAFDKIIICGDPELADTLLYMGKIFQAGIEENLSSVMGDVLARRATLTGQELVRWHLGSIRNLSRALGEFLSEEQPVTASRNRFHQLASEVESLQRRILRLEKRITALVPSFSSIAGNLPRTGR,not soluble
7,VAIDTVITDMDGTLLVKKGDQIHPLNKEVLINWQADGKKLFLATGRLDLAILPFIHELNIKTPVISCNGGLVRDFTTGEILYKSNIELDLVHTVLETLEPLGVNYHIYTTERIIGPTNTGKIAFFNELNKTLSENEQVPITLTTDPFSVLREGEFPLKVLVIESDLEKRAEIKAALQGLPLSVLASASNLIDIMNEGIDKAKGLTYLADNGYINLNSTIAFGDNENDVGMIELAEIGVAMENGIPLALEKADKIAKHHDIGGLGLFMQEEIL,not soluble
8,EKIAHMAVSRGNGARLLVDGEATFAALFAALDAARHYVLIQFYIVRDDDLGLELRDRLIAAAQRGVKVRFLTDAIGSYGLSDNYIEDLRAAGIDIANPRKQRGPNTRFQVNYRNHRKTVVVDGQTGFIGGHNVGVEYLGQDPVMGRWRDTHVQITGPSVLQLQLVFAEDWHWARGEDLLDLLSWETRLDPQDADALIVATGPGDRTESGAMM,not soluble
9,MIPVVYSNLCPVCGGDLESKEIEKHVCFRKKRSLCLFPEDFLLKEFVEFFRKCVGEPRAIQKMWAKRILRKESFAATAPTGVGKTSFGLAMSLFLALKGKRCYVIFPTSLLVIQAAETIRKYAEKAGVGTENLIGYYHGRIPKREKENFMQNLRNFKIVITTTQFLSKHYRELGHFDFIFVDDVDAILKASKNVDKLLHLLGFHYDLKTKSWVGEARGCLMVSTATAKKGKKAELFRQLLNFDIGSSRITVRNVEDVAVNDESISTLSSILEKLGTGGIIYARTGEEAEEIYESLKNKFRIGIVTATKKGDYEKFVEGEIDHLIGTAHYYGTLVRGLDLPERIRFAVFVGCPSFRVTIEDIDSLSPQMVKLLAYLYRNVDEIERLLPAVERHIDEVREILKKVMGKERPQAKDVVVREGEVIFPDLRTYIQGSGRTSRLFAGGLTKGASFLLEDDSELLSAFIERAKLYDIEFKSIDEVDFEKLSRELDESRDRYRRRQEFDLIKPALFIVESPTKARQISRFFGKPSVKVLDGAVVYEIPMQKYVLMVTASIGHVVDLITNRGFHGVLVNGRFVPVYASIKRCRDCGYQFTEDRESCPKCGSENVDNSRSRIEALRKLAHDAEFVIVGTDPDTEGEKIAWDLKNLLSGCGAVKRAEFHEVTRRAILEALESLRDVDENLVKAQVVRRIEDRWIGFVLSQKLWERFNNRNLSAGRAQTLVLGWIIDRFQESRERRKIAIVRDFDLVLEHDEEEFDLTIKLVEEREELRTPLPPYTTETMLSDANRILKFSVKQTMQIAQELFENGLITYHRTDSTRVSDVGQRIAKEYLGDDFVGREWGESGAHECIRPTRPLTRDDVQRLIQEGVLVVEGLRWEHFALYDLIFRRFMASQCRPFKVVVKKYSIEFDGKTAEEERIVRAEGRAYELYRAVWVKNELPTGTFRVKAEVKSVPKVLPFTQSEIIQMMKERGIGRPSTYATIVDRLFMRNYVVEKYGRMIPTKLGIDVFRFLVRRYAKFVSEDRTRDLESRMDAIERGELDYLKALEDMYAEIKSID,soluble
10,MNTKLPLDLFNQAKRSASQDQPALFSWVTELDELVSPVKLFKKAGTAFKGERFFWQNPEMTLTMTGFGVTKQFLAEKKKDAFLGLQEKIEKRLRTSVTNATVDATGPVYFGGFAFDPERDTEKEWQSFKDGLFYLPLFMLTNKDGKSYLTVNLSIYSDDTESKLEAVFNQWQKIIHQEVNEAEMALLTDFKEIGKDHFLETASEIIDMINHSEDVKKVVLARRMGLRFQRQVDSAIILENMLATQENSYFFLIEKGTGVFFGATPERLLAVNGDEIHSSCVAGSTERGATEEADEALGNALLKDAKNLREHSYVVQMMEETLKPFTTGLSLSSQPVLLKNRDIQHLYMNITAKKKPDVSMLEMVKALHPTPALGGLPQKMGLAIIRMKEEMDRGFYGAPIGWVDLKGSGEFAVAIRSGLIVDSQGLIYAGCGIVGDSVPKEELQETAVKFQPMLRVLGGIKK,not soluble
11,MILKASKEALKEAVEILKKGGIIVAPTDTLYGILADATNEEAVKRLYKIRRPSGKPFLVLLPDESWLEKLCLDVKEEHKKLLKVEGLTLVFRKTCDKLDYVSKGTLAVRLPQKGFIRDLLSELKKPVVAPSVNPEGKKPAESVEEAYNYFGNKVDLYIDAGVIKGEPSTILDLTEGVKILREGKVKKEEIEKILNRKL,soluble
12,MGRDSPRDRRHRDRSPERRRRSRSRSRDRQTRRDTRRDDSPKIKREVKEEQFSDNDSPRRRRDDRGGRRDDRRDNRRDDRRDHRDDRGDRDRRDNFRRPDPVREDGKQYGLEKKEENWGKPEEPAKEKEKVNLGTSGALTEDTNTFRGVVIKYNEPPEAKKPNARWRLYPFKGEESLQVLYIHRQSAYLIGRDHKIADIPVDHPSCSKQHAVLQFRSMPFTRDDGTKARRIMPYIIDLGSGNGTFLNEKKIEPQRYIELQEKDMLKFGFSTREYVVMKEREITEEELAEGEDVKKEESD,not soluble
